The values below come from publication PMC12225155.

The target of this experiment is importin α5 (UniProt P52294). Kind of experiment: co-immunoprecipitation, western blot. To be noted: reference: KIAA1429-WT; sites S1579. On the technique in general: In western blotting, separated proteins are transferred to a membrane and probed.

“KIAA1429 (VIRMA) (from UniProt Q69YN4) KIAA1429-SA (S1579A)”: the “binding against the reference” value is reported as “stronger”.
